Reference: patent publication US20200048348A1

Columns and labels:
human CD3 (human) [1] = target: human CD3 (human) (UniProt P07766)
human CD3 (human) [2] = target: human CD3 (human) (UniProt P07766); assay: flow cytometry, bispecific antibody on Jurkat cells; antibody concentration not given
human CD3 (human) [3] = target: human CD3 (human) (UniProt P07766); assay: Octet, protein binding affinity of the anti-CD3 arm of the bispecific; form of the CD3 protein not stated

Chain of human CD3 (human) (P07766 23-207, chain 1 of 2): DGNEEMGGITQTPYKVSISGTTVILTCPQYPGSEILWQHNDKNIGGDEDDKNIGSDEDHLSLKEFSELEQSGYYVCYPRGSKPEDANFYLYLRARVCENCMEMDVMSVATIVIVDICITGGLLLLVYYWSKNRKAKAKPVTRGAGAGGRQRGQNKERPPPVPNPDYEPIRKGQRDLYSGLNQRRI
Chain of human CD3 (human) (P04234 22-171, chain 2 of 2, further chain): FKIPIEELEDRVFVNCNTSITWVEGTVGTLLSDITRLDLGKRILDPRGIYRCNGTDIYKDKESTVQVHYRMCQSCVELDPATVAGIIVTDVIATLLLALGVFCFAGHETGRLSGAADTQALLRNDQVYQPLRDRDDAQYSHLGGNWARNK

| IFNg released by pan T-cells, bispecific on plate-coated BCMA protein, at 12 ng/mL bispecific (human CD3 (human) [1]) [pg] | IL-2 released by pan T-cells, bispecific on plate-coated BCMA protein, at 37 ng/mL bispecific (human CD3 (human) [1]) [pg] | IL-6 released by pan T-cells, bispecific on plate-coated BCMA protein, at 111 ng/mL bispecific (human CD3 (human) [1]) [pg] | IL-10 released by pan T-cells, bispecific on plate-coated BCMA protein, at 111 ng/mL bispecific (human CD3 (human) [1]) [pg] | TNFa released by pan T-cells, bispecific on plate-coated BCMA protein, at 12 ng/mL bispecific (human CD3 (human) [1]) [pg] | Jurkat cell bind (MFI) (human CD3 (human) [2]) | Kd (human CD3 (human) [3]) [nM] | Binder | %kill of U266 tumor cells with human pan T-cells at 333 ng/mL bispecific (human CD3 (human) [1]) [%] | kill EC50: U266 tumor cell lysis with human pan T-cells (human CD3 (human) [1]) [µg/mL] |
| --- | --- | --- | --- | --- | --- | --- | --- | --- | --- |
| 333 | 44 | 0.5 | 2.4 | 485 | 67 | 714 | CD3_F2F-BCMA (bispecific antibody, part only; not given: anti-BCMA arm and common light chain, part only) anti-CD3 heavy chain: EVQLVESGGGLVQPGRSLRLSCAASGFTFHNYAMHWVRQAPGKGLEWVSGISWNSGSIGYADSVKGRFTISRDNAKNSLYLQMNSLRAEDTALYYCAKDSRGYGDYSLGGAYWGQGTLVTVSS | 51 | 0.0098 |
| 154 | 8 | 0.5 | 0.6 | 553 | 31 | 1000 | CD3_F2B-BCMA (bispecific antibody, part only; not given: anti-BCMA arm and common light chain, part only) anti-CD3 heavy chain: EVQLVESGGGLVQPGRSLRLSCAASGFTFDDYAMHWVRQAPGKGLEWVSGISWNSGSIGYADSVKGRFTISRDNAKNSLYLQMNSLRAEDTALYYCAKDSRGYGDYRLGGAYWGQGTLVTVSS | 38 | 0.15 |
